B1: Succinate dehydrogenase [ubiquinone] iron-sulfur subunit, mitochondrial (Homo sapiens), P21912 (parent)
chain: MAAVVALSLRRRLPATTLGGACLQASRGAQTAAATAPRIKKFAIYRWDPDKAGDKPHMQTYEVDLNKCGPMVLDALIKIKNEVDSTLTFRRSCREGICGSCAMNINGGNTLACTRRIDTNLNKVSKIYPLPHMYVIKDLVPDLSNFYAQYKSIEPYLKKKDESQEGKQQYLQSIEEREKLDGLYECILCACCSTSCPSYWWNGDKYLGPAVLMQAYRWMIDSRDDFTEERLAKLQDPFSLYRCHTIMNCTRTCPKGLNPGKAIAEIKKMMATYKEKKASV
partner: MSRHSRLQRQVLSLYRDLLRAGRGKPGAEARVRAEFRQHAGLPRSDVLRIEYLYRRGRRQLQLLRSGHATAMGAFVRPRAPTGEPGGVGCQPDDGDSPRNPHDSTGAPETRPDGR
B2: Succinate dehydrogenase assembly factor 1, mitochondrial (Homo sapiens), A6NFY7 (parent)
chain: B1 partner
partner: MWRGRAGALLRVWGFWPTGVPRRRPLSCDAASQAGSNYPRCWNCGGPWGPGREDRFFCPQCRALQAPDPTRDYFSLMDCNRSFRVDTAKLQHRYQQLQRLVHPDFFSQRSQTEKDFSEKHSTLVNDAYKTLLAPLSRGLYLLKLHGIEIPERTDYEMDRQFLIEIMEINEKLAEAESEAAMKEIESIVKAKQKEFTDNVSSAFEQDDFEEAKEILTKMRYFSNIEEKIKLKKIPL
B3: Succinate dehydrogenase assembly factor 1, mitochondrial (Homo sapiens), A6NFY7 (parent)
chain: B1 partner
partner: B1 chain

Variants of: B1
Conditions: with sdhf1_human SDHAF1, A6NFY7

| effect of a mutation on the interaction | Variant |
| --- | --- |
| decreasing interaction strength | MAAVVALSLRRRLPATTLGGACLQASRGAQTAAATAPRIKKFAIYRWDPDKAGDKPHMQTYEVDLNKCGPMVLDALIKIKNEVDSTLTFRRSCREGICGSCAMNINGGNTLACTRRIDTNLNKVSKIYPLPHMYVIKDLVPDLSNAYAQYKSIEPYLKKKDESQEGKQQYLQSIEEREKLDGLYECILCACCSTSCPSYWWNGDKYLGPAVLMQAYRWMIDSRDDFTEERLAKLQDPFSLYRCHTIMNCTRTCPKGLNPGKAIAEIKKMMATYKEKKASV [F146A] |
| disrupting interaction strength | MAAVVALSLRRRLPATTLGGACLQASRGAQTAAATAPRIKKFAIYRWDPDKAGDKPHMQTYEVDLNKCGPMVLDALIKIKNEVDSTLTFRRSCREGICGSCAMNINGGNTLACTRRIDTNLNKVSKIYPLPHMYVIKDLVPDLSNAAAAAASAEPYLKKKDESQEGKQQYLQSIEEREKLDGLYECILCACCSTSCPSYWWNGDKYLGPAVLMQAYRWMIDSRDDFTEERLAKLQDPFSLYRCHTIMNCTRTCPKGLNPGKAIAEIKKMMATYKEKKASV [F146A;Y147A;Q149A;Y150A;K151A;I153A] |
| increasing interaction strength | MAAVVALSLRRRLPATTLGGACLQASRGAQTAAATAPRIKKFAIYRWDPDKAGDKPHMQTYEVDLNKCGPMVLDALIKIKNEVDSTLTFRRSCREGICGSCAMNINGGNTLACTRRIDTNLNKVSKIYPLPHMYVIKDLVPDLSNFYAQYKSIEPYLKKKDESQEGKQQYAAAIEEREKLDGLYECILCACCSTSCPSYWWNGDKYLGPAVLMQAYRWMIDSRDDFTEERLAKLQDPFSLYRCHTIMNCTRTCPKGLNPGKAIAEIKKMMATYKEKKASV [L171A;Q172A;S173A] |

Variants of: B2
Conditions: with hsc20_human HSCB

| effect of a mutation on the interaction | Variant |
| --- | --- |
| with no effect | MSRHSRLQRQVLSVFKDLLRAGRGKPGAEARVRAEFRQHAGLPRSDVLRIEYLYRRGRRQLQLLRSGHATAMGAFVRPRAPTGEPGGVGCQPDDGDSPRNPHDSTGAPETRPDGR [L14V;Y15F;R16K] |
| disrupting interaction strength | MSRHSRLQRQVLYLYRRLLRAGRGKPGAEARVRAEFRQHAGLPRSDVLRIEYLYRRGRRQLQLLRSGHATAMGAFVRPRAPTGEPGGVGCQPDDGDSPRNPHDSTGAPETRPDGR [S13Y;D17R] |
| decreasing interaction strength | MSRHSRLQRQVLSLYRDLLRAGRGKPGAEARVRAEFRQHAGLPRSDVLRIESLYRDGRRQLQLLRSGHATAMGAFVRPRAPTGEPGGVGCQPDDGDSPRNPHDSTGAPETRPDGR [Y52S;R56D] |
| disrupting interaction strength | MSRHSRLQRQVLSAAADLLRAGRGKPGAEARVRAEFRQHAGLPRSDVLRIEYLYRRGRRQLQLLRSGHATAMGAFVRPRAPTGEPGGVGCQPDDGDSPRNPHDSTGAPETRPDGR [L14A;Y15A;R16A] |
| with no effect | MSRHSRLQRQVLSLYRDLLRAGRGKPGAEARVRAEFRQHAGLPRSDVLRIEYLYPRGRRQLQLLRSGHATAMGAFVRPRAPTGEPGGVGCQPDDGDSPRNPHDSTGAPETRPDGR [R55P] |
| with no effect | MSRHSRLQRQVLSLYRDLLRAGRGKPGAEARVRAEFRQHAGLPRSDVLRIEYAAARGRRQLQLLRSGHATAMGAFVRPRAPTGEPGGVGCQPDDGDSPRNPHDSTGAPETRPDGR [L53A;Y54A;R55A] |
| with no effect | MSRHSRLQRQVLSLYRDLLRAGRGKPGAEARVRAEFRQHAGLPRSDVLRIEYLYRRRRRQLQLLRSGHATAMGAFVRPRAPTGEPGGVGCQPDDGDSPRNPHDSTGAPETRPDGR [G57R] |

Variants of: B3
Conditions: with sdhb_human SDHB

| effect of a mutation on the interaction | Variant |
| --- | --- |
| decreasing interaction strength | MSRHSRLQRQVLSLYRDLLRAGRGKPGAEARVRAEFRQHAGLPRSDVLRIEYLYRRGRRQAQLAASGHATAMGAFVRPRAPTGEPGGVGCQPDDGDSPRNPHDSTGAPETRPDGR [L61A;L64A;R65A] |
| disrupting interaction strength | MSRHSRLQRQVLSLYRDLLRAGRGKPGAEARVRAEFRQHAGLPRSDVLRIEYAAARGRRQAQLAASGHATAMGAFVRPRAPTGEPGGVGCQPDDGDSPRNPHDSTGAPETRPDGR [L53A;Y54A;R55A;L61A;L64A;R65A] |
| disrupting interaction strength | MSRHSRLQRQVLSLYRDLLRAGRGKPGAEARVRAEFRQHAGLPRSDVLRIEYAAAAAAAQLQLLRSGHATAMGAFVRPRAPTGEPGGVGCQPDDGDSPRNPHDSTGAPETRPDGR [L53A;Y54A;R55A;R56A;G57A;R58A;R59A] |
| decreasing interaction strength | MSRHSRLQRQVLSLYRDLLRAGRGKPGAEARVRAEFRQHAGLPRSDVLRIEYLYRAAAAQLQLLRSGHATAMGAFVRPRAPTGEPGGVGCQPDDGDSPRNPHDSTGAPETRPDGR [R56A;G57A;R58A;R59A] |

Variants of: B3
Conditions: with sdhb_human SDHB
Remark: another data set of the same source

| effect of a mutation on the interaction | Variant |
| --- | --- |
| decreasing interaction strength | MSRHSRLQRQVLSLYRDLLRAGRGKPGAEARVRAEFRQHAGLPRSDVLRIEYAAARGRRQLQLLRSGHATAMGAFVRPRAPTGEPGGVGCQPDDGDSPRNPHDSTGAPETRPDGR [L53A;Y54A;R55A] |
| decreasing interaction strength | MSRHSRLQRQVLSLYRDLLRAGRGKPGAEARVRAEFRQHAGLPRSDVLRIEYLYPRGRRQLQLLRSGHATAMGAFVRPRAPTGEPGGVGCQPDDGDSPRNPHDSTGAPETRPDGR [R55P] |
| disrupting interaction strength | MSRHSRLQRQVLSLYRDLLRAGRGKPGAEARVRAEFRQHAGLPRSDVLRIEYLYRRRRRQLQLLRSGHATAMGAFVRPRAPTGEPGGVGCQPDDGDSPRNPHDSTGAPETRPDGR [G57R] |
| with no effect | MSRHSRLQRQVLSAAADLLRAGRGKPGAEARVRAEFRQHAGLPRSDVLRIEYLYRRGRRQLQLLRSGHATAMGAFVRPRAPTGEPGGVGCQPDDGDSPRNPHDSTGAPETRPDGR [L14A;Y15A;R16A] |

Source: IntAct's records for PubMed 26749241
